Assay results from patent publication US7572895B2, “Transferrin receptor antibodies” (Raven Biotechnologies, Inc., priority 2004, dated 2009).

Experiments:
[1] = target: human transferrin receptor, full length, on cells (human) (UniProt P02786); test: cell-based or functional assay
HCT15 tumor xenograft = test: Established HCT15 tumor xenograft model; assay type: in vivo, mice; conditions: antibody 500 ug twice weekly for four weeks; gemcitabine 120 mg/kg q3d ×2
Experimental: For each experimental group, data is plotted until the first animal presents with a tumor greater than 1000 mm^3.
LUCA31 was particularly active in blocking the proliferation of the colon carcinoma cell line HCT15. […] In this study, groups of 15 mice were treated twice weekly with 500 ug of antibody for four weeks. Gemcitabine was dosed on a q3d ×2 schedule at 120 mg/kg, which is near the MTD. Treatment was initiated when tumor volumes averaged 70 mm^3. In FIG. 16A, the median tumor volumes are shown and in FIG. 16B, the mean tumor volumes with error bars are presented. In this experiment, the LUCA31 antibody produced a tumor growth delay of greater than 14 days, relative to the saline control. Gemcitabine produced a 20-day tumor growth delay and the combination of LUCA31 and gemcitabine produced a tumor growth delay of 18 days relative to gemcitabine alone.

Sequence of UniProt P02786 (P02786 whole entry): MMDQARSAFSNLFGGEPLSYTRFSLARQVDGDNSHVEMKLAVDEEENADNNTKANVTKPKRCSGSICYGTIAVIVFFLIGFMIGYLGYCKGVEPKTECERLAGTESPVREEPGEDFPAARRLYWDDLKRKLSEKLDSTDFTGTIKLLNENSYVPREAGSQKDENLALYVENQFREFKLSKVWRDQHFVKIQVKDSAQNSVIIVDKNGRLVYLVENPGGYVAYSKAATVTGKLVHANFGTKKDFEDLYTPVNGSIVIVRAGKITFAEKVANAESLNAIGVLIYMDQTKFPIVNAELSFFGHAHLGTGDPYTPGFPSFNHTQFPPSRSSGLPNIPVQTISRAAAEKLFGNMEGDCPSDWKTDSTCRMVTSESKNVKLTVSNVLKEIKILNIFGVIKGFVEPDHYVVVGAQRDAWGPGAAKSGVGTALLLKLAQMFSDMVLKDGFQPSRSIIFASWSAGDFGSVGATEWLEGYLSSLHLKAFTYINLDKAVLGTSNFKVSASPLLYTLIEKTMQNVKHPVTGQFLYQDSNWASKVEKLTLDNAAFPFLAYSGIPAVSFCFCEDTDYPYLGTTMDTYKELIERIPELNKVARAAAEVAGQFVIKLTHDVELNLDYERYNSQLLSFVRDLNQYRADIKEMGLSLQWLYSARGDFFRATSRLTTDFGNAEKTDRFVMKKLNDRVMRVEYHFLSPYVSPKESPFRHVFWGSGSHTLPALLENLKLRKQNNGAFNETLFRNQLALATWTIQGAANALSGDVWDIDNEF

Maximum inhibition (% inhibition) of cell proliferation, Calu6 cells [1] | Maximum inhibition (% inhibition) of cell proliferation, Colo205 cells [1] | Maximum inhibition (% inhibition) of cell proliferation, LS174T cells [1] | Maximum inhibition (% inhibition) of cell proliferation, SW48 cells [1] | growth inhibition (MTT), 786-O cells, LUCA31 at 20 ug/ml [1] | growth inhibition (MTT), Colo205 cells, LUCA31 at 20 ug/ml [1] | growth inhibition (MTT), MDA-MB-175VII cells, LUCA31 at 20 ug/ml [1] | growth inhibition (MTT), SKMES-1 cells, LUCA31 at 20 ug/ml [1] | maximum inhibition of cell proliferation (tritiated thymidine incorporation), Calu-6 cells [1] | Compound | tumor growth delay relative to the saline control (HCT15 tumor xenograft)
25% | 25% | 35% | 35% | 54% | 37% | 35% | 45% | 45% | LUCA31 monoclonal antibody (mouse anti-human transferrin receptor antibody produced by hybridoma CA130.3.13C9.1A7, ATCC PTA-6055) | –
– | – | – | – | – | – | – | – | – | Nc1ccn([C@@H]2O[C@H](CO)[C@@H](O)C2(F)F)c(=O)n1 [Gemcitabine, gemcitabine] | 20 days
0% | 25% | – | 0% | – | – | – | – | – | transferrin receptor antibody 42/6 | –
